Results as given in a protein production outcome set (Wang et al. 2014).

Experiment: label from the status in PepcDB records

Sequence	protein production
MDKPILKDSMKLFEALGTIKSRSMFGGFGLFADETMFALVVNNQLHIRADQQTSSDFETQGLKPYVYKKRGFPVVTKYYAISSELWESSDRLIEVAKKSLENAKLEKEQQASTKPNRLKDLPNLRLATERMLKKAGIDSVAQLEEEGALSAYKAIRDTHSTTVSLELLWALEGAINGTHWSVVPQSRREELMNGLS	not failed
MDTLKVRDAQEVEDAVRAAIANEQPIEIVGHGSKRSIGQLMSTNAVLELSALNAVTAYEPNELIITVQAGAPMADVLSLIDSKNQQFAFEPMDTATLLGTTPGAGTVAGMISAGLAGPRRIKAGGARDHLLGANAVSGFGESFKAGGKVVKNVTGYDLCKLLAGSWGTLAVMTEVTLKVTPRPESERTLVLRGLADVVANKAMTAALGSPYDVTGAAHLPGSALRTTAGALAEIAQPDQSLTLLRLEGITSSASHRAQSLRAALKSFGDAELIEDDASAALWRAVRDVEPFAASGPRALWPVWRIVCPPAAGGAFGEQLSRESGGEVIYDWGGGLIWAALPPATDGHAKALRQRVEKIGGHATLIRGSDAVRAGIDIFHPQPAGLAALGSRVKRSFDPTNILNRGRMSRGSAT	failed
MVHEKKKMRKNHKKITHKGKKITTGAASVLLGAGIVVGANARPVKATSSREDEITEVDTINVISSETEKADVEQRTDTTETVETEGNVDNTNTEVSVPIDETINTEAQAANNTTQVESTVEDTTQEETTETQQNPSVDNQEPVLSDPPSVESPEDSATEVTTTKTTDEVKNAADEANKENKDKLDAEINKAEDNGHTVTQDGDKVYKADATNIDKIIEDLNQFTADQITDIETKLAKYKEELEAYKADQVRYEAELKNYQTAKDAYVKKLEEWGLYKPGDIDPSDISQSLILGEEKNSKVEVLNKGSVVDEGTGSILNGLLNHFYTIDEKFDGEFLKLQYTNLENITYMGKNIDSIQIIFSGWNPNYKGKNADKRTSGIYFSDKLTDGFFYVNSDGVTMEMILFENGKTINLDKNSAYITAGSLNSQGTGNDYIEKAEIFNNSSEYGGSAVTFQDSFIRRHDGTYGGDVLYADQNIEVLAVYPGKDQTLEDAIEEQKKLALEAGWKQEIIDKFINWDSSTDRSKAIFGAGAFMVYGNKIKIRFSNGIGSAWATYSTSIPGMAFREEKPKEPTVPEPPKLDLTYTPGHIELSKSNVHIHYVDVHDTAQAGKNDSFVPDDGIELDDHVDHQLDLLIGTGYNHDLWNFEDAGYILAEEIKDGVQNGTVIKDDQHHYVYLKHKFIPTTDEENEKKDVNQVIHYVYDATGETAYKDYHAVTLHFIKSGQKDVVNGNIIWGNWTLAQDFAGVKSPSIEGYHLKDKNDDVVGPYTIEVTEKNYQNNLDVEYTVRYVANATQELNLKKEVNQVIHYIYENGTKAHDDYHALTLLFEKKGIKDLETGEETWGEWTKTQTFVVVKSPDIQNYIADRLEVGPYEITVTDENYKTNLDKDDIVIYRARIEEVTRDKVVNQVIHYIYEDGSTARPDHVSVKLVFTQTGVKNLATNTTNWNGEWTKTQTFVVVKSPEIEGYTADREEVGPYDITVTNENYNDKLDKEDTVIYRANTNVPDNPDPDNPTPDNPDPDNPTPDTPTPDPTPGDDEEIATPPLPEDEIGNYPSQSDEDDEEERTAPHATGKETRSGTNKNNARVISLENAGSDDSVTPENVSTEATDKTDEKQTTVNSTNEKTLPATGEEKDDFAKVMSGLAAALGITGLAVTSKRRKATAKRSKKDKKNGK	failed
MRSTVAEPPVLDKIIKNVRVVRPHNDAVELLDIGIKDGKFAQIAPNITPDTGQEIFDAKNLLGFPGVVDAHMHIGIYQPLDKDAVTESKAAAMGGVTTSLNYIRTGQYYLNKGGSYRDFFPEVLALSAGNFFVDYSYHVAPIASQHIDEIPLLFEEHGVTSFKIFMFYGGYGLHGLSDQQNLFLMINKEERYDFAHFEFIMRGVTRLMAEYPEARDYISLSLHCEVAEILNAYTKIVENDSSLSGLHAYSAARPPHSEGLAISIAAYLAHETNCANINLLHLSSRKAMEAALIMQTAFPHINFRREVTVGHLLLDVDTPNGTWAKVNPPIRPRADVEYLWQAVLNHQVDWIVSDHACCSAEQKRSAKDPNNIWLAKSGFGGTEYLLSGVVSEGSKRGMSYNHMAKLLSWNPSRRFGLLTKGDIAIGYDADLVLVDPNESFVVRAAESESQQGYTPFEGMELTGRVKSTFLRGSLIYHNGQVLGSPNGRYVRRSLGG	failed
REHDFDDLKFEHFLASAAGAFPAFLEVAEKRIIGEGVLRAVKESMRWHRAENVHFGAFLLLVPLISSWDAGGMVDIAEAARNRLRRTDFRDSLSVLEAFRLSNARVVEAGELNLKDRKTEEEIAQKKINLYEWMKMAPEENLIARELVDGFKISIEGAKFLLSFGNSGKAVVELYYHLLSKFPDPLVIAKMGREYAEKITEWAEKARTEEERKELDEKLLKDGANPGTIADLTASSIFLALAEGWR	not failed
MPGTKQVNVGSLKVGQYVMIDGVPCEIVDISVSKPGKHGGAKARVVGIGIFEKVKKEFVAPTSSKVEVPIIDRRKGQVLAIMGDMVQIMDLQTYETLELPIPEGIEGLEPGGEVEYIEAVGQYKITRVIGGK	not failed
MPECRNCGATLREEYRFCPMCATPQTDEASRRLNQYIEQRATKRQASGGTASSNGAENDGTLRGRLQYAAGYVAIVLGLATVTAVAGVFFLLAGLFLLPPIHGRIESAVGRRLGPAPTAGVAGVLAAFGLVVFVFL	failed
MRPSAIVLAGGKEAWAERFGVGSKALVPYRGRPMVEWVLEALYAAGLSPVYVGENPGLVPAPALTLPDRGGLLENLEQALEHVEGRVLVATGDIPHLTEEAVRFVLDKAPEAALVYPIVPKEAVEARFPRTKRTYARLREGTFTGGNLLLLDKSLFRKALPLARRVVALRKRPLALARLVGWDVLLKLLLGRLSLAEVEARAQRILGVEARALVTPYPEVGVDVDREEDLVS	not failed
MALPLVSSVSYIKSSNQFHCSFSLRKEKFELSSFFIVLCSHFSYVDTAERLELDRLLLWSSHQKIRFSKRTFSQRIVVKMSASTLPMNLGKAKKVWIWTMCKEVMTVAVERGWNTFIFSSDNRKLSNEWSSIALMDTLFIEEKKVIDGTGNVVASVFEVSTPEELRSLNIENEQIENIVLDFLDWKSIPAENLVAALQGSEKTVFAVSNTPSEAKLFLEALEHGLGGIILKSEDVKAVLDLKEYFDKRNEESDTLSLTEATITRVQMVGMGDRVCVDLCSLMRPGEGLLVGSFARGLFLVHSECLESNYIESRPFRVNAGPVHAYVAVPGGKTCYLSELRTGREVIVVDQKGKQRTAVVGRVKIEKRPLIVVEAKLSTKEEETVYSIILQNAETVALVTPHQVNSSGRTAVPVTSLKPGDQVLIRLQGGARHTGIEIQEFIVEN	failed
MIETLITFIIIFGIIVAIHEYGHLWWAKRSGILVREYAVGMGPKIFAHQAKDGTLYTIRILPLGGYVRLAGWGDDKTEIKKGQAASLVVSKSEVVNPEAENSVSNIVRRINLSEHVELEEAIPMLITEYDFEKELFIEGEVFGEIKRYSVDHDATIIEEDGTEVRIAPLDVQYQSAGVFHKMLTNFGGPLNNFILGIIAFIVLTFVQGGVPSTTNAIGQVEKGTPAYNAGLKAGDKIEAVNGTKTADWNNVVTEISGSKGKELKLEVSRSGKSETLSVTPKKMDGSYRVGIMQSMKTGFFDKITGGFVQAGQSATAIFKALGSLIARPSLDKLGGPVAIYQLSGQAARAGFPAIVYLLAMLSINLGIVNLFPIPVLDGGKIVLNIIEAIRGKALSQEKESIITMVGVVFMLVLFVAVTWNDILRAFVN	failed
MLLGSCWRIARGVETVPYPWPKWLPIPVLATTVGVAAVVIGVRQLGLLQPSELSLYDFYVRSQPPRDPDSRILTVLVTEQDIQAQKTWPLPDATVAELLTRLNAASPRAIGLDIFRDLPQPPGHDELQNMIRINPRIIPVCKSPGETVEQPEVPPPPSIPTAQVPERVGFADIPLDSDGVIRRNLFVINNPKAQRCTTPFSFALMLALRYLEQDPSQTIKLDDKGLTLNDVHFPLLTSDAGGYVAVDDRGMQTLLKYRSRTAVGPTVSLTDVLTGRVSEDLIRDRVVLIGVSAPSIKDTFLTPYSGSDAVTQQMPGVVVHGQMVSQFLSAALEGEGPIWYWPVPLVLGWILLWAGVGSILGWWLRQPLWLGGAVVGGIIVLFGGGFGIFVMASGWIPVVPPAIALVLSSVGMVGYVSYQAQQEQKSFREKVQEQEKALALLRSLMAEDTAALNAALREPTEITGKPRSLLSGRYKIQKVLGSGGFGRTYLAQDTQRPGNPLCVVKHLRPGRTDERFMQVARRLFNTEAEILEKLGRHDQIPLLLAYVEENREFYLVQEFIDGVSLSEELKRKHTEAEAIQLLREILEVLNFVHSHYVIHRDIKPDNIIRRASDRKLVLIDFGAVKQIQPQEAERTQGSTVVIGTMGYAPPEQLSGQPTLSSDIYAVGMIVLQALTGIKPRDLPRDPRTGEVDWQQCVTVSEGLAVVLNKMVKFNFSDRYPSAKEALQDARRLGTPAASVS	failed
MNSILPSVSTLAVGARPARPNVSVVMVVYRTGEALVESIRHVLAEPLVDEFIIVDNGSSSRDEDMLRSLALTEPRVVLKQGHGNVGFARGANLGAVTAGGEYIVFLNPDANLQPSCVASLVTAFKGQPVPTIVGARVLNTDGSEQRGGRRGDVTPISTVLSFGQLTRRYPKLAGFEIHRENEPLPGAPVPMPTISGACFAMRRADFVALNGFDEGYFLHVEDIDLCWRARRAGGQVLFQPNAEVVHLGHTSLEHPVKVEFHKGVGLTRYFIKRADSLQLFAAAVLLAPAIMLMSVCRPLLWKLTGRPI	failed
MKVIIIGGETTAYYLARSMLSRKYGVVIINKDRELCEEFAKKLKATIIHGDGSHKEILRDAEVSKNDVVVILTPRDEVNLFIAQLVMKDFGVKRVVSLVNDPGNMEIFKKMGITTVLNLTTLITNTVEALIFPDEFSSIIPLEQ	not failed
MVEVESDSVAERDRSSFLAGHDAIRLAKSCVDSPPERWYAALYQVYADLTKLRCWSNVEVVYSDSATFPTGLLGPLFEEDSMVQELHSAQCILGSERACFHVRCCIVGSPPSGRAINALSPQSETRTEERIITSRREPEVVIAVPMHAMLKLSNLDQALRMSSHIEGIVKNRHVADSSASTHSTDRQAGSRKSSVIFGFVDEDTTTAYYRIREGACESNDRREFSTDDIASCLAQERT	not failed
NVVLRILAWLLAVGLVVLPVVAVLNGWVGAERWPLAKLRVSGDFKRVSAEELRAVVLPYVRSGFFAVRLPQVQDAVERLPWVERAHVSKRWPDVLEVSVVEHQPFARWGSDRMLSEQGRLFPVPGGLKNLKLPQLGGPDMKVRDVVALYKASSALFASTGLDVSWLQMDARGSWSLGLSNGLQIFVGRDDARARLERFARVLPQLLDPQRPVVRADLRYTN	failed
MQPTGNQIQQNQQQQQQLIMRVPKQEVSVSGAARRYVQQAPPNRPPRQNHQNGAIGGKKSSVTIQEVPNNAYLETLNKSGNNKVDDDKLPVFLIKLWNIVEDPNLQSIVHWDDSGASFHISDPYLFGRNVLPHFFKHNNMNSMVRQLNMYGFRKMTPLSQGGLTRTESDQDHLEFSHPCFVQGRPELLSQIKRKQSARTVEDKQVNEQTQQNLEVVMAEMRAMREKAKNMEDKMNKLTKENRDMWTQMGSMRQQHARQQQYFKKLLHFLVSVMQPG	failed
MSAARQGVAQARRIVVKVGSSSLTTAAGGLDADRVDALVDVLAKSRSGGEKEIVLVSSGAIAAGLAPLGLRRRPKDLARQQAAASVGQGLLVARYTASCARHGIRVGQVLLTSDDTSRRAHHRNASRTLDKLLAMGALPVVNENDTVATDEIRFGDNDRLAALVAHLVRADLLVLLSDVDGVYDGDPSKPGTSRVAQVHGPQDLAHVEIGSAGRAGVGTGGMVTKIEAARIAAAAGIPVVLTSAVHAADALAGRDTGTYFHPTGKRSADRLLWLQHASTPQGALTLDDGAVRAVVERRKSLLPAGIAAVEGEFTAGDPVELRDSEGRAVARGLVSFDAKEIPQLLGRSTRELARELGPAYEREVVHRDDLVLLQP	failed
